Laboratory results: paper PMC10397247

Experiments:
Experiment in all cases: two-hybrid library CCNG1;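 also: natural log of median RNA to DNA barcode read ratio; higher means stronger binding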
4H797-bN = target: T1, 4H797-bN
T1 chain: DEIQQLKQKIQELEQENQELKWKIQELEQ

4H2702-bN = target: T2, 4H2702-bN
T2 chain: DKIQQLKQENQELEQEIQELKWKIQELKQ

4H457-bN = target: T3, 4H457-bN
T3 chain: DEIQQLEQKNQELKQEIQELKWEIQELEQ

4H2627-bN = target: T4, 4H2627-bN
T4 chain: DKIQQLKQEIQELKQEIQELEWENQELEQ

4H2673-bN = target: T5, 4H2673-bN
T5 chain: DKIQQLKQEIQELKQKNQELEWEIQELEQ

4H683-bN = target: T6, 4H683-bN
T6 chain: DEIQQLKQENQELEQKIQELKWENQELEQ

4H3427-bN = target: T7, 4H3427-bN
T7 chain: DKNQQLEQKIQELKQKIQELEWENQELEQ

4H754-bN = target: T8, 4H754-bN
T8 chain: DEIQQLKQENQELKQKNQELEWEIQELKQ

4H780-bN = target: T9, 4H780-bN
T9 chain: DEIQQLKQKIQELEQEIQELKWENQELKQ

4H3112-bN = target: T10, 4H3112-bN
T10 chain: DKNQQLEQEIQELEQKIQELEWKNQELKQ

O15-bS = target: T11, O15-bS
T11 chain: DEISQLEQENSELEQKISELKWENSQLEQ

4H918-bN = target: T12, 4H918-bN
T12 chain: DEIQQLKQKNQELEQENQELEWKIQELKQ

4H2586-bN = target: T13, 4H2586-bN
T13 chain: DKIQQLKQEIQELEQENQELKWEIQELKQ

4H575-bN = target: T14, 4H575-bN
T14 chain: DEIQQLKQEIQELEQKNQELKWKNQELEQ

4H1831-bN = target: T15, 4H1831-bN
T15 chain: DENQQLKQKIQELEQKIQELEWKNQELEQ

4H118-bN = target: T16, 4H118-bN
T16 chain: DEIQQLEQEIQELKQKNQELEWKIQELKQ

4H170-bN = target: T17, 4H170-bN
T17 chain: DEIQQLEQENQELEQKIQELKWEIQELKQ

4H3010-bN = target: T18, 4H3010-bN
T18 chain: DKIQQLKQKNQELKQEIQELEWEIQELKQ

4H968-bN = target: T19, 4H968-bN
T19 chain: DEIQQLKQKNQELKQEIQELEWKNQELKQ

4H953-bN = target: T20, 4H953-bN
T20 chain: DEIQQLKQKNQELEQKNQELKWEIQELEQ

4H3926-bN = target: T21, 4H3926-bN
T21 chain: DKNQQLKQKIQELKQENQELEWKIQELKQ

4H4073-bN = target: T22, 4H4073-bN
T22 chain: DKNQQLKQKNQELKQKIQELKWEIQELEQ

4H855-bN = target: T23, 4H855-bN
T23 chain: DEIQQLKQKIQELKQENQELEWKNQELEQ

4H346-bN = target: T24, 4H346-bN
T24 chain: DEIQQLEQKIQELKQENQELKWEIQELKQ

P1A-bH = target: T25, P1A-bH
T25 chain: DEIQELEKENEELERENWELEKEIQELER

4H2839-bA = target: T26, 4H2839-bA
T26 chain: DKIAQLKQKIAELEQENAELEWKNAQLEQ

4H730-bA = target: T27, 4H730-bA
T27 chain: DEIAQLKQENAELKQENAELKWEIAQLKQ

4H2915-bA = target: T28, 4H2915-bA
T28 chain: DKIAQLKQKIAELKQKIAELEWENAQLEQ

O3-bA = target: T29, O3-bA
T29 chain: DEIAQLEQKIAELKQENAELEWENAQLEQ

4H2717-bA = target: T30, 4H2717-bA
T30 chain: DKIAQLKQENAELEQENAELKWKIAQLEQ

4H3277-bA = target: T31, 4H3277-bA
T31 chain: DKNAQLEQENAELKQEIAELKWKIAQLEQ

4H348-bA = target: T32, 4H348-bA
T32 chain: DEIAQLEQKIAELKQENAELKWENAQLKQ

4H2585-bA = target: T33, 4H2585-bA
T33 chain: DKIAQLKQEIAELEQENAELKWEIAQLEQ

4H3041-bA = target: T34, 4H3041-bA
T34 chain: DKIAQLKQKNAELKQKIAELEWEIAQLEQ

4H2233-bA = target: T35, 4H2233-bA
T35 chain: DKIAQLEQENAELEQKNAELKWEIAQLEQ

4H40-bA = target: T36, 4H40-bA
T36 chain: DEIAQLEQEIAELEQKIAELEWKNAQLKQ

4H741-bA = target: T37, 4H741-bA
T37 chain: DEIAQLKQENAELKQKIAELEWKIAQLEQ

4H2588-bA = target: T38, 4H2588-bA
T38 chain: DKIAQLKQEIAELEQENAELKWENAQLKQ

4H2931-bA = target: T39, 4H2931-bA
T39 chain: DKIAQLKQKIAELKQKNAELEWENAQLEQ

4H3297-bA = target: T40, 4H3297-bA
T40 chain: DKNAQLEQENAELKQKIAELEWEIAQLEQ

4H2438-bA = target: T41, 4H2438-bA
T41 chain: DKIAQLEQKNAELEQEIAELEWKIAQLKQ

4H883-bH = target: T42, 4H883-bH
T42 chain: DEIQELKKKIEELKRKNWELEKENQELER

4H477-bA = target: T43, 4H477-bA
T43 chain: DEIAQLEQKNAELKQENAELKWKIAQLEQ

4H2473-bA = target: T44, 4H2473-bA
T44 chain: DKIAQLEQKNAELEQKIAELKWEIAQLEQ

4H2162-bA = target: T45, 4H2162-bA
T45 chain: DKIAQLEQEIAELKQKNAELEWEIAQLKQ

4H349-bA = target: T46, 4H349-bA
T46 chain: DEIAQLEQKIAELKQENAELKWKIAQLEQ

4H2444-bA = target: T47, 4H2444-bA
T47 chain: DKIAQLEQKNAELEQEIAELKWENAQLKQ

4H2253-bA = target: T48, 4H2253-bA
T48 chain: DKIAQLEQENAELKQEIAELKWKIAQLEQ

4H3364-bA = target: T49, 4H3364-bA
T49 chain: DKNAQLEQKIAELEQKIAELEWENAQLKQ

4H319-bA = target: T50, 4H319-bA
T50 chain: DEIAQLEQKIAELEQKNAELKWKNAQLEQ

4H235-bA = target: T51, 4H235-bA
T51 chain: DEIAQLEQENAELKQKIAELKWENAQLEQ

4H2518-bA = target: T52, 4H2518-bA
T52 chain: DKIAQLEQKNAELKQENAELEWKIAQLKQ

4H2859-bA = target: T53, 4H2859-bA
T53 chain: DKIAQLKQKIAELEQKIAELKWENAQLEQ

4H56-bA = target: T54, 4H56-bA
T54 chain: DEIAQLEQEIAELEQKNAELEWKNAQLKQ

4H796-bA = target: T55, 4H796-bA
T55 chain: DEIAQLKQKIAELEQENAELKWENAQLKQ

4H264-bA = target: T56, 4H264-bA
T56 chain: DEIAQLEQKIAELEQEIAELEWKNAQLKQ

4H2223-bA = target: T57, 4H2223-bA
T57 chain: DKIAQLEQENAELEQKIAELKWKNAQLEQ

4H2503-bA = target: T58, 4H2503-bA
T58 chain: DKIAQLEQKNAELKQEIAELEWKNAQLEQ

4H949-bA = target: T59, 4H949-bA
T59 chain: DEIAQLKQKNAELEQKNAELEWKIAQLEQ

4H3057-bA = target: T60, 4H3057-bA
T60 chain: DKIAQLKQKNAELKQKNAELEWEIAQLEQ

4H3381-bA = target: T61, 4H3381-bA
T61 chain: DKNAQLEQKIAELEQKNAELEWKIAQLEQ

4H2692-bA = target: T62, 4H2692-bA
T62 chain: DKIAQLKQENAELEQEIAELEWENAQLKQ

4H932-bA = target: T63, 4H932-bA
T63 chain: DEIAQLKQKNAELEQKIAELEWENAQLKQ

4H2760-bA = target: T64, 4H2760-bA
T64 chain: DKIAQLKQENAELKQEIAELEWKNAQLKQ

4H492-bA = target: T65, 4H492-bA
T65 chain: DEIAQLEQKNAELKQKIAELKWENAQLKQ

4H2143-bA = target: T66, 4H2143-bA
T66 chain: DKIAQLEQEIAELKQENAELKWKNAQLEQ

B1: 4H118-bN (peptide)
chain: DEIQQLEQEIQELKQKNQELEWKIQELKQ
- interaction score (4H797-bN): -0.885
- interaction score (4H2702-bN): 0.0476
- interaction score (4H457-bN): -1.63
- interaction score (4H2627-bN): 0.463
- interaction score (4H2673-bN): 1.25
- interaction score (4H683-bN): -0.936
- interaction score (4H3427-bN): -0.395
- interaction score (4H754-bN): -0.655
- interaction score (4H780-bN): -0.129
- interaction score (4H3112-bN): -0.413
- interaction score (O15-bS): -1.04
- interaction score (4H918-bN): -0.314
- interaction score (4H2586-bN): 0.735
- interaction score (4H575-bN): -0.336
- interaction score (4H1831-bN): -0.392
- interaction score (4H118-bN): 0.139
- interaction score (4H170-bN): -1.27
- interaction score (4H3010-bN): 2.35
- interaction score (4H968-bN): 0.0583
- interaction score (4H953-bN): -0.648
- interaction score (4H3926-bN): 1.02
- interaction score (4H4073-bN): -1.59
- interaction score (4H855-bN): 0.221
- interaction score (4H346-bN): -0.129

B2: 4H2143-bA (peptide)
chain: DKIAQLEQEIAELKQENAELKWKNAQLEQ
- interaction score (P1A-bH): -0.594
- interaction score (4H2839-bA): 0.951
- interaction score (4H730-bA): -0.518
- interaction score (4H2915-bA): 0.145
- interaction score (O3-bA): 0.533
- interaction score (4H2717-bA): 0.447
- interaction score (4H3277-bA): -0.971
- interaction score (4H348-bA): -2.35
- interaction score (4H2585-bA): 0.499
- interaction score (4H3041-bA): 0.0855
- interaction score (4H2233-bA): -0.508
- interaction score (4H40-bA): -1.53
- interaction score (4H741-bA): -1.07
- interaction score (4H2588-bA): 0.968
- interaction score (4H2931-bA): 0.604
- interaction score (4H3297-bA): -0.562
- interaction score (4H2438-bA): -0.866
- interaction score (4H883-bH): -0.0863
- interaction score (4H477-bA): -1.41
- interaction score (4H2473-bA): -0.712
- interaction score (4H2162-bA): -0.188
- interaction score (4H349-bA): -0.729
- interaction score (4H2444-bA): -0.654
- interaction score (4H2253-bA): -0.521
- interaction score (4H3364-bA): -0.25
- interaction score (4H319-bA): -1.13
- interaction score (4H235-bA): -1.89
- interaction score (4H2518-bA): -0.404
- interaction score (4H2859-bA): 0.213
- interaction score (4H56-bA): -0.735
- interaction score (4H796-bA): -0.0583
- interaction score (4H264-bA): -1.37
- interaction score (4H2223-bA): -0.911
- interaction score (4H2503-bA): -0.661
- interaction score (4H949-bA): -0.273
- interaction score (4H3057-bA): -0.0999
- interaction score (4H3381-bA): -0.302
- interaction score (4H2692-bA): -0.33
- interaction score (4H932-bA): -0.976
- interaction score (4H2760-bA): -0.549
- interaction score (4H492-bA): -0.554
- interaction score (4H2143-bA): 0.408
